Molecular target: myc-tagged LIMP-2

B1: wild-type β-glucocerebrosidase (GC), human, overexpressed in cells (protein)
chain: ARPCIPKSFGYSSVVCVCNATYCDSFDPPTFPALGTFSRYESTRSGRRMELSMGPIQANHTGTGLLLTLQPEQKFQKVKGFGGAMTDAAALNILALSPPAQNLLLKSYFSEEGIGYNIIRVPMASCDFSIRTYTYADTPDDFQLHNFSLPEEDTKLKIPLIHRALQLAQRPVSLLASPWTSPTWLKTNGAVNGKGSLKGQPGDIYHQTWARYFVKFLDAYAEHKLQFWAVTAENEPSAGLLSGYPFQCLGFTPEHQRDFIARDLGPTLANSTHHNVRLLMLDDQRLLLPHWAKVVLTDPEAAKYVHGIAVHWYLDFLAPAKATLGETHRLFPNTMLFASEACVGSKFWEQSVRLGSWDRGMQYSHSIITNLLYHVVGWTDWNLALNPEGGPNWVRNFVDSPIIVDITKDTFYKQPMFYHLGHFSKFIPEGSQRVGLVASQKNDLDAVALMHPDGSAVVVVLNRSSKDVPLTIKDPAVGFLETISPGYSIHTYLWRRQ
In the case of B1, the “GC enzymatic activity on co-expression with LIMP-2” value is reported as “Upon co-expression of wild-type GC and LIMP-2 we observed a significant increase in GC activity”.

Source: patent publication US20170258870
